Experimental data reported in the supplement of paper PMC12764529.
± gives the half width of the 95% confidence interval.

Legend:
[1] = folding stability dG unfold (combined trypsin and chymotrypsin); higher = more stable
In short: (§1)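 Unfolding free energy was derived, per protease or combined, against a sequence-predicted unfolded-state K50 and a shared folded-state K50, starting from K50 inferred by Bayesian fitting of sequencing counts. Digestion with trypsin and chymotrypsin was carried out on designed mini-proteins under 80 residues without cysteine in a PA-tagged cDNA display construct. Only designs with AlphaFold2 dimer inter-PAE above 15 were kept.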

[2] = folding stability dG unfold from trypsin proteolysis; higher = more stable
In short: as §1

[3] = folding stability dG unfold from chymotrypsin proteolysis; higher = more stable
In short: as §1

Sequence | folding stability dG unfold [1] [kcal/mol] | folding stability dG unfold [2] [kcal/mol] | folding stability dG unfold [3] [kcal/mol]
SAGGSAGGMKVTSRETTEITVDTSTGKVTITTTTTLSNGTVVPVGTTTVAISELPEELLSEIESSAGGSAGG [r6_469_JUSTAS] | 0.707 ± 0.042 | 0.308 ± 0.026 | 0.886 ± 0.019
SMKVKIKIEVYKPENKLIVKVYFPEIGKEIVFEFDSLEGLFEKIKKELGLKEENIEIVEVKVKEVDPSELSA [r9_909_TrMRF] | 2.2 ± 0.18 | 2.21 ± 0.16 | 1.93 ± 0.048
SAGGSAGGSARRDEVVERARERLLEEHPDLKPGETATVVVRDPETDEVYVFRFDGDGRVYGSAGGSAGGSAG [r3_441_TrMRF] | 1.31 ± 0.16 | 0.59 ± 0.09 | 1.59 ± 0.11
SAGGSAMPILTDTVYEIPVDRSPDETEEEIKEYLKELLLKKLPPGTEVKLEVKFDPETGTVTVKVVSAGGSA [r15_739_JUSTAS] | 1.58 ± 0.12 | 1.96 ± 0.12 | 0.972 ± 0.037
SAGGSAGGITPDDYFLIKLNAVVKLPNGDIVELKKDEVILAKADDVEILHADDIEIYPIGRDKLSAGGSAGG [r6_810_TrMRF] | -0.0393 ± 0.22 | 0.23 ± 0.048 | -0.503 ± 0.29
SAGGSAGGSAGWIDPEDIKKIQHERNPNNGRGEMRLEFENGKPVEIEFKSPEEALDWLLKSAGGSAGGSAGG [r11_339_TrROS] | -0.185 ± 0.13 | -0.547 ± 0.15 | -0.156 ± 0.23
SAGVPLSSVPESEVAEEVEFPKHGLKLLRDTATGKWYLQEGDTATVIPPEEAAKLLAEIKAPKPSPELLSAG [r14_516_JUSTAS] | 1.2 ± 0.082 | 1.33 ± 0.073 | 1.01 ± 0.083
SAGGSAGGSKKKYIIKVKIYNENGELVEEKEIEAESEEEALEALAKNPNISKEEITKIEVYELSAGGSAGGS [r12_182_TrROS_Hall] | 2.19 ± 0.08 | 2.24 ± 0.041 | 2.1 ± 0.054
SAGGMTVETTTVTLAAGTTYTVTTPSDSTVEVVDTETGVVRRFDVPASTDFSVTLPADRTYDITVVRRSAGG [r19_78_JUSTAS] | 1.15 ± 0.032 | 0.7932 ± 0.0053 | 1.35 ± 0.022
SAGGSAGGSAYIPAEEIAEEVAAVLPPDEVALFPLPEKPLVVLVVREEDGVPRVLVLPPELASAGGSAGGSA [r18_61_TrMRF] | 0.261 ± 0.082 | 0.00934 ± 0.069 | 0.367 ± 0.093
SAGGSMVLTLEEESEEGVLRVTELHFYPGEVTVTTRTFEIAPDGSVRSATESTTVIPVPPSALAEASAGGSA [r2_474_JUSTAS] | 1.96 ± 0.1 | 1.37 ± 0.051 | 2.33 ± 0.038
SAGGSKKTYIVDSPEEIAKLIESIPEEEYVFAIKGRPDGKPVVEIYSKENIEEAIKENPEIIIPVGSAGGSA [r2_351_TrMRF] | 0.479 ± 0.11 | 0.287 ± 0.058 | 0.641 ± 0.068
SAGGSAGGSAGFEAFVEEIKKDGDYKVEAFVFDNESGIKTLVIVLESPEEDKYEIRTFNISAGGSAGGSAGG [r11_753_TrMRF] | 0.829 ± 0.14 | 0.769 ± 0.038 | 0.796 ± 0.24
SAGGSAGGSAGGSSAKDILDELKGITFFHPNGRRYRITDVEIEPHGDGWVLSIEMEPYPSAGGSAGGSAGGS [r4_299_TrROS] | 2.7 ± 0.059 | 2.05 ± 0.057 | 3.05 ± 0.034
SAGGMVVRIKVKIKNPETGEVIEVEALVEVDEDGNVTITLPNGKKITLPKGAKVEIVDVEELPPEDLSAGGS [r16_223_TrROS_Hall] | 3.52 ± 0.093 | 3.72 ± 0.11 | 3.14 ± 0.075
SWIPVKEIAKYIAREFGMPKENLDNIEEVDPITVHPNPDGWVQVEATIRFRNPRNGKGHEMRIEIHVPKKSA [r9_230_TrROS] | 1.96 ± 0.09 | 1.66 ± 0.024 | 2.22 ± 0.11

Sequence | folding stability dG unfold [1] [kcal/mol] | folding stability dG unfold [2] [kcal/mol] | folding stability dG unfold [3] [kcal/mol]
SKKIIKIKIEVIFPKTKKKIEIEIEMTEEEAKKLAEELKKKFKDEKVEVKIVKIEPLPPKKKKKVSKKKKSA [r9_14_TrROS_Hall] | 1.83 ± 0.2 | 1.52 ± 0.099 | 1.99 ± 0.1
SAGGSAGGSAGKVKLVEENGKLKLVVVDEKTKKVTVIEVPLENLDEILKLLPPGAKVYLLSAGGSAGGSAGG [r11_1006_TrROS_Hall] | 2.12 ± 0.17 | 1.05 ± 0.053 | 2.52 ± 0.049
SMKPNEKFPSLEEVKEAAKRIAEEIEKKTGKKIEVEVKVETVKKEDGKEVVKITIVDKKTKKVIKEIEIKSA [r9_794_TrROS_Hall] | 1.58 ± 0.12 | 2.18 ± 0.096 | 0.783 ± 0.076
SAGGSAGGSAGGMLKITITTPGEEREFVIPTPEPEPPGEEEVAKELGLEDVEVEVEEVLESAGGSAGGSAGG [r11_219_JUSTAS] | 0.0103 ± 0.12 | 0.118 ± 0.04 | -0.0518 ± 0.1
SAGMMPLSHPEAREKAIEFAKKGYLVYVIEFENGESQVIVLESEEEIEELIKELPKPIKKIYVIPPLPESAG [r5_481_TrMRF] | 2.79 ± 0.089 | 2.11 ± 0.054 | 3.054 ± 0.017
SAGGSSPPTVEVSFDPASGTLTITTPDGTTTYSVKSVTVTRLPPELTLITITLEDGTVLTFELVVASAGGSA [r2_268_JUSTAS] | 4.52 ± 0.13 | 3.36 ± 0.15 | 4.65 ± 0.063
SAGMKIKIKLENGEEIEIDKENPVIKIKNKETGEEVELVFDPENEDEIYIFNKKTKKLIAKFKITEIEPSAG [r5_761_TrROS_Hall] | 2.62 ± 0.34 | 1.87 ± 0.092 | 3.21 ± 0.084
SAGGITIEWERNPDGYPNIKIQIRAPNGKKVAKLPIQFDPNDGGMTKLDLKKLLKEINLPPNVEVEFISAGG [r13_479_TrROS] | 1.34 ± 0.13 | 1.45 ± 0.05 | 1.22 ± 0.13
SAGGSAGGEPVKIEWEPIGRDPNGAFKFRLIIRDPDGTVQRTEIWINPNGGMQVETETIPPEDNSAGGSAGG [r6_263_TrROS] | 2.13 ± 0.14 | 1.92 ± 0.065 | 2.15 ± 0.085
SAGKKKKIKVKIEIRVKKKYKTKDGKEVEEKEETITVEIEMTLEELKEAIKKLPENVEITKITKIEKESAGG [r19_114_TrROS_Hall] | 2.26 ± 0.16 | 1.58 ± 0.11 | 2.42 ± 0.058
SAGGSAGGSSGPTLTIRYSILVSDSDGNWYALVFEARIYPNGDVEIRYRLYSYKDIPPGASPTSAGGSAGGS [r12_38_TrMRF] | 4.7 ± 0.067 | 4.12 ± 0.16 | 4.85 ± 0.093
SAGGMKIVSVEVVKDEETGVYVIKLTVEDPETNETYTLEVVIKNEDGELKTITVKAKSKEDALKELLKSAGG [r13_26_TrROS_Hall] | 3.1 ± 0.23 | 1.85 ± 0.067 | 3.6 ± 0.14
SAGATFKPGQTITVTVTVTVTVTNADGSTTTVTATVTVTLTVEPAPPLTFKTAEEAEAARKAGLSPEELSAG [r5_624_TrROS_Hall] | 1.84 ± 0.23 | 1.35 ± 0.07 | 1.9 ± 0.076
SAGGIKIHVEREGNYYRIKIKWPNNNEISIPFDSPEDAEEQAEEQLQKQFPNMPPENVKIDEIEPYPPSAGG [r13_887_TrROS] | 0.469 ± 0.099 | 0.173 ± 0.11 | 0.504 ± 0.15
SAGGSAGGSAGGKPITIKLEETGETATIDEDNGIITITNKDGSKYQITFKDGKLIIKKISAGGSAGGSAGGS [r10_568_TrROS_Hall] | 2.79 ± 0.097 | 1.99 ± 0.076 | 3.1 ± 0.056
